Experimental data taken from the supplement of paper PMC10567573.

B1: SPACA3 (parent)
chain: FTSGFNAAALDYEADGSTNNGIFQ

Variants of: B1
Assay: protein stability index of a GFP-peptide fusion (GPS, HEK-293T) (PSI 1-6); higher = more stable
Conditions: c terminus: a fixed tail appended
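Note: lentivirally expressed fusions sorted by FACS into six bins by GFP to DsRed ratio, PSI derived from sequencing read proportions per bin multiplied by bin number.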

Variant	protein stability index
FTSGFMAAALDYEADGSTNNGIFQ [N6M]	3.01
FTSGFGAAALDYEADGSTNNGIFQ [N6G]	1.83
FTSGFCAAALDYEADGSTNNGIFQ [N6C]	3
FTSGFPAAALDYEADGSTNNGIFQ [N6P]	1.61
FTSGFLAAALDYEADGSTNNGIFQ [N6L]	2.78
FTSGFEAAALDYEADGSTNNGIFQ [N6E]	2.88
FTSGFDAAALDYEADGSTNNGIFQ [N6D]	2.99
FTSGFWAAALDYEADGSTNNGIFQ [N6W]	3.02
FTSGFKAAALDYEADGSTNNGIFQ [N6K]	2.45
FTSGFSAAALDYEADGSTNNGIFQ [N6S]	1.85
FTSGFHAAALDYEADGSTNNGIFQ [N6H]	2.38
FTSGFVAAALDYEADGSTNNGIFQ [N6V]	2.08
FTSGFAAAALDYEADGSTNNGIFQ [N6A]	1.84
FTSGFIAAALDYEADGSTNNGIFQ [N6I]	1.43
FTSGFTAAALDYEADGSTNNGIFQ [N6T]	1.61
FTSGFRAAALDYEADGSTNNGIFQ [N6R]	1.41
FTSGFQAAALDYEADGSTNNGIFQ [N6Q]	1.94
FTSGFYAAALDYEADGSTNNGIFQ [N6Y]	2.82
FTSGFFAAALDYEADGSTNNGIFQ [N6F]	3.46
FTSVFNAAALDYEADGSTNNGIFQ [G4V]	2.21
FTSMFNAAALDYEADGSTNNGIFQ [G4M]	1.74
FTSWFNAAALDYEADGSTNNGIFQ [G4W]	2.98
FTSYFNAAALDYEADGSTNNGIFQ [G4Y]	1.68
FTSRFNAAALDYEADGSTNNGIFQ [G4R]	1.87

Variant	protein stability index
FTSDFNAAALDYEADGSTNNGIFQ [G4D]	2.79
FTSLFNAAALDYEADGSTNNGIFQ [G4L]	1.7
FTSSFNAAALDYEADGSTNNGIFQ [G4S]	2.38
FTSNFNAAALDYEADGSTNNGIFQ [G4N]	2.3
FTSHFNAAALDYEADGSTNNGIFQ [G4H]	2.59
FTSAFNAAALDYEADGSTNNGIFQ [G4A]	1.82
FTSEFNAAALDYEADGSTNNGIFQ [G4E]	2.22
FTSPFNAAALDYEADGSTNNGIFQ [G4P]	2.78
FTSQFNAAALDYEADGSTNNGIFQ [G4Q]	2.43
FTSIFNAAALDYEADGSTNNGIFQ [G4I]	2.15
FTSFFNAAALDYEADGSTNNGIFQ [G4F]	2.13
FTSCFNAAALDYEADGSTNNGIFQ [G4C]	1.94
FTSKFNAAALDYEADGSTNNGIFQ [G4K]	1.98
FTSTFNAAALDYEADGSTNNGIFQ [G4T]	2.42
NTSGFNAAALDYEADGSTNNGIFQ [F1N]	4.94
VTSGFNAAALDYEADGSTNNGIFQ [F1V]	4.46
WTSGFNAAALDYEADGSTNNGIFQ [F1W]	3.6
TTSGFNAAALDYEADGSTNNGIFQ [F1T]	4.63
PTSGFNAAALDYEADGSTNNGIFQ [F1P]	4.29
ETSGFNAAALDYEADGSTNNGIFQ [F1E]	5.11
STSGFNAAALDYEADGSTNNGIFQ [F1S]	4.64
MTSGFNAAALDYEADGSTNNGIFQ [F1M]	3.99
HTSGFNAAALDYEADGSTNNGIFQ [F1H]	4.48
KTSGFNAAALDYEADGSTNNGIFQ [F1K]	4.54

Variant	protein stability index
RTSGFNAAALDYEADGSTNNGIFQ [F1R]	4.61
GTSGFNAAALDYEADGSTNNGIFQ [F1G]	4.61
QTSGFNAAALDYEADGSTNNGIFQ [F1Q]	4.24
LTSGFNAAALDYEADGSTNNGIFQ [F1L]	4.01
YTSGFNAAALDYEADGSTNNGIFQ [F1Y]	2.24
ITSGFNAAALDYEADGSTNNGIFQ [F1I]	3.95
FTSGFNAAALAYEADGSTNNGIFQ [D11A]	2.16
FTTGFNAAALDYEADGSTNNGIFQ [S3T]	1.84
FTCGFNAAALDYEADGSTNNGIFQ [S3C]	1.65
FTEGFNAAALDYEADGSTNNGIFQ [S3E]	2
FTAGFNAAALDYEADGSTNNGIFQ [S3A]	2.37
FTLGFNAAALDYEADGSTNNGIFQ [S3L]	2.2
FTNGFNAAALDYEADGSTNNGIFQ [S3N]	2.56
FTVGFNAAALDYEADGSTNNGIFQ [S3V]	2.07
FTPGFNAAALDYEADGSTNNGIFQ [S3P]	2.29
FTKGFNAAALDYEADGSTNNGIFQ [S3K]	2.97
FTMGFNAAALDYEADGSTNNGIFQ [S3M]	2.52
FTHGFNAAALDYEADGSTNNGIFQ [S3H]	2.14
FTYGFNAAALDYEADGSTNNGIFQ [S3Y]	2.03
FTQGFNAAALDYEADGSTNNGIFQ [S3Q]	2.19
FTFGFNAAALDYEADGSTNNGIFQ [S3F]	2.12
FTRGFNAAALDYEADGSTNNGIFQ [S3R]	2.46
FTGGFNAAALDYEADGSTNNGIFQ [S3G]	4.05
FTIGFNAAALDYEADGSTNNGIFQ [S3I]	1.76

Variant	protein stability index
FTWGFNAAALDYEADGSTNNGIFQ [S3W]	2.26
FTDGFNAAALDYEADGSTNNGIFQ [S3D]	2.55
FTSGFNALALDYEADGSTNNGIFQ [A8L]	1.73
FTSGFNAMALDYEADGSTNNGIFQ [A8M]	1.64
FTSGFNAVALDYEADGSTNNGIFQ [A8V]	2.4
FTSGFNAQALDYEADGSTNNGIFQ [A8Q]	1.84
FTSGFNAHALDYEADGSTNNGIFQ [A8H]	1.85
FTSGFNASALDYEADGSTNNGIFQ [A8S]	1.99
FTSGFNADALDYEADGSTNNGIFQ [A8D]	2.98
FTSGFNAYALDYEADGSTNNGIFQ [A8Y]	1.89
FTSGFNATALDYEADGSTNNGIFQ [A8T]	1.98
FTSGFNARALDYEADGSTNNGIFQ [A8R]	2.29
FTSGFNANALDYEADGSTNNGIFQ [A8N]	2.35
FTSGFNAEALDYEADGSTNNGIFQ [A8E]	2.35
FTSGFNAWALDYEADGSTNNGIFQ [A8W]	2.61
FTSGFNAFALDYEADGSTNNGIFQ [A8F]	2.73
FTSGFNACALDYEADGSTNNGIFQ [A8C]	1.77
FTSGFNAPALDYEADGSTNNGIFQ [A8P]	2.13
FTSGFNAGALDYEADGSTNNGIFQ [A8G]	1.82
FTSGFNAKALDYEADGSTNNGIFQ [A8K]	2.23
FTSGFNAIALDYEADGSTNNGIFQ [A8I]	2.34
FTSGFNAAAADYEADGSTNNGIFQ [L10A]	1.62
